Data: PMC11830813

Biological target: Fc-tagged CD147 (UniProt P35613)
UniProt P35613, sequence (P35613 138-325): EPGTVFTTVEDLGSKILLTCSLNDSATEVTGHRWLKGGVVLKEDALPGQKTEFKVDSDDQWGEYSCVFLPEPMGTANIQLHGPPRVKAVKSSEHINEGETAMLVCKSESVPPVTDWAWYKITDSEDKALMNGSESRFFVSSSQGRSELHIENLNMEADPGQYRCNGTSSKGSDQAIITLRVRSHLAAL

Work on “recombinant human cyclophilin B (from UniProt P23284 34-216) (natural protein)” yielded an SARS-CoV-2 uptake by human monocytes (N protein RNA by RT-qPCR, 24 hpi) after pretreatment with recombinant human CypA and CypB together (each 10 µg/ml) as a decoy; CD147 endogenous on the monocytes (fold decrease) of 2.7.
